Experimental data from article PMC5830921, “A single N‐terminal phosphomimic disrupts TDP‐43 polymerization, phase separation, and RNA splicing” (The EMBO Journal, 2018).

B1: TDP-43 N-terminal domain (NTD), wild-type, residues 1-80 (domain or fragment)
chain: GHMMSEYIRVTEDENDEPIEIPSEDDGTVLLSTVTAQFPGACGLRYRNPVSQCMRGVRLVEGILHAPDAGWGNLVYVVNYPKD
notes: three additional N-terminal residues left by the cloning strategy and TEV cleavage; TDP-43 N-terminal domain, residues 1-80 (codon of N81 changed to a stop codon); 15N-labelled or natural abundance, depending on the NMR experiment; also called TDP-43 NTD; NTD WT; source: E. coli BL21 Star DE3, purified (Histrap, TEV cleavage, SEC); not shown: Thioredoxin, N-terminal, cleaved; His6, N-terminal, …

How the values were obtained:
[1] = molecular target: the molecule itself; assay: cross-linking; amine cross-linker BS3, 20 mM HEPES pH 7.5, 150 mM NaCl, 1 mM DTT, room temperature 30 min, SDS-PAGE; samples of 10-200 μM
[2] = molecular target: the molecule itself; assay: AUC; sedimentation equilibrium, 28.28-89.23 μM, 150 mM NaCl, 20°C, 12,000, 25,000 and 43,000 rpm; isodesmic model, single KD for each association step
[3] = molecular target: the molecule itself; assay: CG-MALS; composition gradient multi-angle light scattering, 20 mM HEPES pH 6.8, 150 mM NaCl, 1 mM DTT; isodesmic self-association model, each addition of a monomer
[4] = molecular target: B1; assay: NMR titration; 1H-15N HSQC chemical shift deviations of 10 μM 15N-labelled protein with 90 μM natural abundance partner, against 10 μM alone; details: both partners purified
[5] = molecular target: TDP-43 NTD S48E, residues 1-80 (UniProt Q13148); assay: CG-MALS; composition gradient multi-angle light scattering, 20 mM HEPES pH 6.8, 150 mM NaCl, 1 mM DTT; isodesmic self-association model, each addition of a monomer

| binding result [4] | Kd [5] | Binder | stoichiometry N [1] | Kd [2] | Kd [3] |
| --- | --- | --- | --- | --- | --- |
| – | – | B1 | ≤ 7 | ~40 µM | 95 µM |
| binds | 2000 µM | TDP-43 NTD S48E, residues 1-80 (domain or fragment, three additional N-terminal residues left by the cloning strategy and TEV cleavage; TDP-43 N-terminal domain, residues 1-80, phosphomimetic S48E; 15N-, 13C/15N-labelled or natural abundance, depending on the NMR experiment; also called S48E TDP-43 NTD; S48E 1-80 NTD; source: E. coli BL21 Star DE3, purified (Histrap, TEV cleavage, SEC); not shown: Thioredoxin, N-terminal, cleaved; His6, …) GHMMSEYIRVTEDENDEPIEIPSEDDGTVLLSTVTAQFPGACGLRYRNPVEQCMRGVRLVEGILHAPDAGWGNLVYVVNYPKD | – | – | – |
